Assay results published in patent US20230243836A1 (published 2023).

T1: VISTA-Fc fusion protein (human)
T1 construct: The limits of the VISTA and Fc parts are marked only by underline and bold, which are not preserved
T1 chain: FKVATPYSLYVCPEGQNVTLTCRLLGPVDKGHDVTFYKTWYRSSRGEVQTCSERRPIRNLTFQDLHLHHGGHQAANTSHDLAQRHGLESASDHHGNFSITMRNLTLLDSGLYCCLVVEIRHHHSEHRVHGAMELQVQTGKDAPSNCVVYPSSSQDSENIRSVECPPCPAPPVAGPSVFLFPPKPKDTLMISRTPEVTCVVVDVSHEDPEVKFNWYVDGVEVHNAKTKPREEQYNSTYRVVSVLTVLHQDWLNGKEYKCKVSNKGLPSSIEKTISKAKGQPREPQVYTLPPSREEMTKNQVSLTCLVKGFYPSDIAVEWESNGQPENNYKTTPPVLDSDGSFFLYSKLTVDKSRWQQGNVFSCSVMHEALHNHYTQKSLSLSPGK


How the values were obtained:
VISTA-Fc fusion protein [1] = molecular target: T1, VISTA-Fc fusion protein; assay: biosensor, VISTA-Fc immobilized; estimated affinity, called qualitative
VISTA-Fc fusion protein [2] = molecular target: T1, VISTA-Fc fusion protein; assay: biosensor, VISTA-Fc immobilized, PSGL-1A in flow (0.3-9.6 µM), HBS with Ca and Mg; two-state binding model
Procedure: (§1) The immobilized VISTA-Fc sample was equilibrated in HEPES buffered saline (HBS) containing calcium (1.5 mM calcium chloride) and magnesium (1.0 mM magnesium chloride). The same buffer was used as running buffer. Samples containing the PSGL-1A or PSGL-1B, which also contained calcium and magnesium, were flowed across a solid surface containing the immobilized VISTA-Fc at a flow rate of 60 μl/min, with 120 seconds of contact time and 300 seconds for dissociation after the surface was regenerated with a 3 second pulse of glycine (pH 1.5). Six difference concentrations of PSGL-1A and PSGL-1B were assayed (0.3 μM, 0.60 μM, 1.20 μM, 2.4 μM, 4.8 μM and 9.6 μM).
(§2) Two different analyses of the experiments were performed: (1) a two-state binding model; and (2) an equilibrium affinity analysis (1:1 model).

VISTA-Fc fusion protein [3] = molecular target: T1, VISTA-Fc fusion protein; assay: biosensor, VISTA-Fc immobilized, PSGL-1A in flow (0.3-9.6 µM), HBS with Ca and Mg; equilibrium affinity analysis (1:1 model)
Procedure: as §1, §2

VISTA-Fc fusion protein [4] = molecular target: T1, VISTA-Fc fusion protein; assay: biosensor, VISTA-Fc immobilized, PSGL-1B in flow (0.3-9.6 µM), HBS with Ca and Mg; two-state binding model
Procedure: as §1, §2

VISTA-Fc fusion protein [5] = molecular target: T1, VISTA-Fc fusion protein; assay: biosensor, VISTA-Fc immobilized, PSGL-1B in flow (0.3-9.6 µM), HBS with Ca and Mg; equilibrium affinity analysis (1:1 model)
Procedure: as §1, §2

[6] = molecular target: T2, IgG1-Fc (RED Systems; 110-HG-100) (UniProt P01857-1 100-330 = IgG part); assay: Sulfo-SBED photo-crosslinking to HL-60 cells, Protein A pull-down, anti-PSGL-1 Western blot
T2 construct: domain: Fc; Negative control, coupled to Sulfo-SBED; also called negative isotype control IgG-Fc
Procedure: Also in these experiments, samples of VISTA-Fc fusion protein (described in Example I) and negative controls of an anti-CD28 antibody (BioXcell, BE0248) and IgG1-Fc (RED Systems; 110-HG-100) were covalently coupled to a bifunctional linker (Sulfo-SBED—ThermoFisher Scientific; 33073) using the manufacturing recommended conditions. The resulting samples were incubated with HL-60 cells for 30 min. at room temperature in a dark place. Crosslinking was photoactivated with a UV light source for 20 min. Cells were then lysed and a Protein A Sepharose pull-down was performed. A Western Blot using an anti-PSGL-1 polyclonal antibody (RED Systems; AF3345) or Streptavidin-HRP was performed on the samples.

Binder	Kd (VISTA-Fc fusion protein [1]) [µM]	Kd (VISTA-Fc fusion protein [2]) [µM]	Kd (VISTA-Fc fusion protein [3]) [µM]	Kd (VISTA-Fc fusion protein [4]) [µM]	Kd (VISTA-Fc fusion protein [5]) [µM]	binding result [6]
PSGL-1 construct A (Fc-fused PSGL-1 with IgG kappa signal sequence and propeptide sequence) (Fc fusion, Their limits are marked only by italic and bold, which are not preserved; Cells were co-transfected with GCNT1 and FUT3 glycosyltransferases for post-translational modification; also called PSGL-1A) QATEYEYLDYDFLPETEPPEMLRNSTDTTPLTGPGTPESTTVEPAARRSTGLDAGGAVTELTTELANMGNLSTDSAAMEIQTTQPAATEAQTTPLAATEAQTTRLTATEAQTTPLAATEAQTTPPAATEAQTTQPTGLEAQTTAPAAMEAQTTAPAAMEAQTTPPAAMEAQTTQTTAMEAQTTAPEATEAQTTQPTATEAQTTPLAAMEALSTEPSATEALSMEPTTKRGLFIPFSVSSVTHKGIPMAASNLSVARSVECPPCPAPPVAGPSVFLFPPKPKDTLMISRTPEVTCVVVDVSHEDPEVKFNWYVDGVEVHNAKTKPREEQYNSTYRVVSVLTVLHQDWLNGKEYKCKVSNKGLPSSIEKTISKAKGQPREPQVYTLPPSREEMTKNQVSLTCLVKGFYPSDIAVEWESNGQPENNYKTTPPVLDSDGSFFLYSKLTVDKSRWQQGNVFSCSVMHEALHNHYTQKSLSLSPGK	~3	32.1	3.01	–	–	–
PSGL-1 construct B (Fc-fused PSGL-1 with IgG kappa signal sequence and tandem repeat unit) (Fc fusion, Its limits are marked only by italic, which is not preserved; Cells were co-transfected with GCNT1 and FUT3 glycosyltransferases; also called PSGL-1B) DQATEYEYLDYDFLPETEPPEMLRNSTDTTPLTGPGTPESTTVEPAARRSTGLDAGGAVTELTTELANMGNLSTDSAAMEIQTTQPAATEAQTTQPVPTEAQTTPLAATEAQTTRLTATEAQTTPLAATEAQTTPPAATEAQTTQPTGLEAQTTAPAAMEAQTTAPAAMEAQTTPPAAMEAQTTQTTAMEAQTTAPEATEAQTTQPTATEAQTTPLAAMEALSTEPSATEALSMEPTTKRGLFIPFSVSSVTHKGIPMAASNLSVNYPVGAPDHISVARSVECPPCPAPPVAGPSVFLFPPKPKDTLMISRTPEVTCVVVDVSHEDPEVKFNWYVDGVEVHNAKTKPREEQYNSTYRVVSVLTVLHQDWLNGKEYKCKVSNKGLPSSIEKTISKAKGQPREPQVYTLPPSREEMTKNQVSLTCLVKGFYPSDIAVEWESNGQPENNYKTTPPVLDSDGSFFLYSKLTVDKSRWQQGNVFSCSVMHEALHNHYTQKSLSLSPGK	~5	–	–	5.09	4.76	–
P-selectin glycoprotein ligand 1 (PSGL-1) expressed on human cells (receptor, Endogenous protein on cells; also called SELPLG; CD162) QATEYEYLDYDFLPETEPPEMLRNSTDTTPLTGPGTPESTTVEPAARRSTGLDAGGAVTELTTELANMGNLSTDSAAMEIQTTQPAATEAQTTPLAATEAQTTRLTATEAQTTPLAATEAQTTPPAATEAQTTQPTGLEAQTTAPAAMEAQTTAPAAMEAQTTPPAAMEAQTTQTTAMEAQTTAPEATEAQTTQPTATEAQTTPLAAMEALSTEPSATEALSMEPTTKRGLFIPFSVSSVTHKGIPMAASNLSVNYPVGAPDHISVKQCLLAILILALVATIFFVCTVVLAVRLSRKGHMYPVRNYSPTEMVCISSLLPDGGEGPSATANGGLSKAKSPGLTPEPREDREGDDLTLHSFLP	–	–	–	–	–	no binding
